Measurements reported in patent publication EP1073891B1, “METHOD OF PREDICTING RECEPTOR MODULATING ACTIVITY” (Duke University, priority 1998, dated 1999).

What was measured:
Type in all cases: cell-based
ERβ [1] = biological target: T1, ERβ (Homo sapiens, UniProt Q92731); assay: Disruption of ERβ transcriptional activation by peptide-DBD fusions, 3xERELuc reporter in HeLa cells (Example 101.7); details: 17β-estradiol
Text: (§1) It contains the LXXLL motif. […] HeLa cells were transfected with either ERα or ERβ expression plasmids along with 3xERELuc reporter, pCMVβgal and peptide-DBD fusion constructs as indicated.
Target sequence in this assay (Q92731 whole entry, the tested form may be a part): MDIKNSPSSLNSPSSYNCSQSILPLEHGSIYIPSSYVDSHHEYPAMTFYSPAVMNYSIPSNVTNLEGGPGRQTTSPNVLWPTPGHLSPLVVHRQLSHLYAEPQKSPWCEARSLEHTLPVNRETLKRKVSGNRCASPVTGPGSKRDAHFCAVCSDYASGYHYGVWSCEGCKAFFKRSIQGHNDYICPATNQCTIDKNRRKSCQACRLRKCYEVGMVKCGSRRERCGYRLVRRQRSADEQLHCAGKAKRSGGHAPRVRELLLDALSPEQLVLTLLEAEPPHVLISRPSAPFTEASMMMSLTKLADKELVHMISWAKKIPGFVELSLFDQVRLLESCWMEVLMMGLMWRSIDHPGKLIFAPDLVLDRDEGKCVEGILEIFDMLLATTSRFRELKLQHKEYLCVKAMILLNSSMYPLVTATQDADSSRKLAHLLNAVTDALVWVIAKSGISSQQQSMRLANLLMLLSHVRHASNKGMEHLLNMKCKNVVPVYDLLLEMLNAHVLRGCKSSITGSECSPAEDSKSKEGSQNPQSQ

ERβ [2] = biological target: T1, ERβ; assay: Mammalian two-hybrid of LXXLL peptides with nuclear receptors (Example 101.6); parameters: Full length receptors and selected peptides were expressed as VP16 and Gal4 DBD fusions, respectively; expressed in transfected cells; details: mammalian two-hybrid receptor panel
Text: (§2) Plasmids: All the Gal4DBD-peptide fusions were constructed as follows: DNA sequences code for the peptides were excised from mBAX vector with Xhol and Xbal restriction enzymes and subcloned into pMsx vector derived from pM vector (Clontech) with a linker sequence to generate infram Sall and Nhel sites for cloning. VP16ER-a construct was generated by polymerase chain reaction (PCR) of full length human ER-α cDNA with primers containing ECoRI flanking both 5' and 3' ends. […]
(§3) The interactions between different LXXLL motifs and different nuclear receptors were assayed in a mammalian two-hybrid system (Fig. 18). Full length receptors and selected peptides were expressed as VP16 and Gal4 DBD fusions, respectively. The strength of the interactions was measured by the activity of the 5xGa14Luc3 reporter gene. […]
Target sequence in this assay (Q92731 whole entry, species assumed, the tested form may be a part): as the sequence (Q92731 whole entry, the tested form may be a part) above

ERα = biological target: T2, ERα (Homo sapiens, UniProt P03372); assay: Disruption of ERα transcriptional activity by peptide-Gal4DBD fusions, 3xERELuc reporter in HeLa cells (Examples 101.4, 101.7)
T2 sequence (P03372 1-595): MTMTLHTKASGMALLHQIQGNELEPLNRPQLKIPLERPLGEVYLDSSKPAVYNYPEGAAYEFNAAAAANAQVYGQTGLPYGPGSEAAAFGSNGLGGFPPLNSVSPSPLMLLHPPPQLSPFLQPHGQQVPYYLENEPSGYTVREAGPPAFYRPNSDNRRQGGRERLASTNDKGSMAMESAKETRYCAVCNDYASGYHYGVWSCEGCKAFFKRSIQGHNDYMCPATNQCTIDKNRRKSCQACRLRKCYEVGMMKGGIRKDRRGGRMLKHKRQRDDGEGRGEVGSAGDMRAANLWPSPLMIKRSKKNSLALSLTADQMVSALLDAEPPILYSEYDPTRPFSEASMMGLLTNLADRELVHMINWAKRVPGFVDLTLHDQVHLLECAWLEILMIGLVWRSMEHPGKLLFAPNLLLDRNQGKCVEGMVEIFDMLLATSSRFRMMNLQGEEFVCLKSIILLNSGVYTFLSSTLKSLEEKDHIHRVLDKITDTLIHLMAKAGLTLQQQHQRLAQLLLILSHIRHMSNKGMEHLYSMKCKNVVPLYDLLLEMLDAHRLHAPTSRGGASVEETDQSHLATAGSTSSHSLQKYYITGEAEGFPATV
Description: HeLa cells were transfected with ERα expression plasmid (RST7ERα), 3xERELuc reporter, pCMVβgal along with different peptide-Gal4DBD fusion constructs. pM is the Gal4DBD control without peptide fusion. Luciferase activity was measured and normalized (Fig. 16). The ability of different peptides to disrupt ERα transcriptional activity correlates with the affinity of these peptides to ERα as measured in mammalian two-hybrid assays in [Figure 15(A)]. […] Two copies of LXXLL motifs interact synergistically to disrupt ER transcriptional activity. 2XF6: two copies of F6 peptide was constructed in tandem with a 54-amino acid spacing linker that has the same sequence as in that in between GRIP-1 NR box II and NR box III. F6G:Ga14DBD-F6 fusion with only one copy of F6 peptide plus the linker. Transient transfection was performed in HeLa cells with 3xERELuc, RST7ERα, pCMVβgal and increasing amount of Gal4DBD-peptide fusion constructs as indicated in the X-axis.
as §1

TR = biological target: T3, TR (Homo sapiens, UniProt P10828); assay: Mammalian two-hybrid of LXXLL peptides with nuclear receptors (Example 101.6); details: mammalian two-hybrid receptor panel
T3 construct: Full length receptors and selected peptides were expressed as VP16 and Gal4 DBD fusions, respectively; expressed in transfected cells; host or cells: mammalian cells; the plasmid was a gift (D.D. More, Baylor College of Medicine)
T3 sequence (P10828 1-461): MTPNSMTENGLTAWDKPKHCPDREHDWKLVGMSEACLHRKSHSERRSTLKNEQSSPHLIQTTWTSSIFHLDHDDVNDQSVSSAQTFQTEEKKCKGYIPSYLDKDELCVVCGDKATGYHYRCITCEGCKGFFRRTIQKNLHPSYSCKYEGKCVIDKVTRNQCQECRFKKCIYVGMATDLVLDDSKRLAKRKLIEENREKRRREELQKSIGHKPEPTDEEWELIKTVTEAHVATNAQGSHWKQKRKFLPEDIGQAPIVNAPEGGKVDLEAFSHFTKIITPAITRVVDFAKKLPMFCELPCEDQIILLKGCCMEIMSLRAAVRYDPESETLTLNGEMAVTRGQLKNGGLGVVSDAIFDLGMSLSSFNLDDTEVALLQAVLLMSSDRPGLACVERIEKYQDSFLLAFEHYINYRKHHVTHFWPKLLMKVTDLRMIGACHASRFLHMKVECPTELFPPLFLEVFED
Text: as §2, §3

RAR = biological target: T4, RAR (Homo sapiens, UniProt P10276); assay: as above; details: mammalian two-hybrid receptor panel
T4 construct: Full length receptors and selected peptides were expressed as VP16 and Gal4 DBD fusions, respectively; expressed in transfected cells; host or cells: mammalian cells
T4 sequence (P10276 1-462): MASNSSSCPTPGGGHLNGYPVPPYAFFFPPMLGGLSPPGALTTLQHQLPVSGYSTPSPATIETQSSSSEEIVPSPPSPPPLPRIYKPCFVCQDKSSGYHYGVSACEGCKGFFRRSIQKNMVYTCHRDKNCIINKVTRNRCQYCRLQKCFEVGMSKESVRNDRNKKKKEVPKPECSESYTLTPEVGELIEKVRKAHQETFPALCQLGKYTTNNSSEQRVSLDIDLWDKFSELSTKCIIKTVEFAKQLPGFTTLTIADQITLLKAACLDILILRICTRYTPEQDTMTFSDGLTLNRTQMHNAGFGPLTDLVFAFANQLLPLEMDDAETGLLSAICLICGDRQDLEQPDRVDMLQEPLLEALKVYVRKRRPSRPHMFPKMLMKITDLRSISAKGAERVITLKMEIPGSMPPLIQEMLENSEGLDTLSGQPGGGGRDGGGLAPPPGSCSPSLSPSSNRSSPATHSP
Text: as §2, §3

disruption of the transcriptional activation by ERβ (ERβ [1]): strongly disrupted | interaction with ERβ (ERβ [2]): selective interactions | disruption of ERα transcriptional activity (ERα): did not interfere | interaction with TRβ (TR): selective interactions | interaction with RARα (RAR): selective interactions
Sequence: SSIKDFPNLISLLSR [Peptide #293]
